In patent US20240190962A1 (IMMUNOWAKE, published 2024):
Substitutions are numbered along the chain they refer to. Names may count otherwise.

B1: Fab-IL-12(WT)-Fc-CD4 Ab (other)
light: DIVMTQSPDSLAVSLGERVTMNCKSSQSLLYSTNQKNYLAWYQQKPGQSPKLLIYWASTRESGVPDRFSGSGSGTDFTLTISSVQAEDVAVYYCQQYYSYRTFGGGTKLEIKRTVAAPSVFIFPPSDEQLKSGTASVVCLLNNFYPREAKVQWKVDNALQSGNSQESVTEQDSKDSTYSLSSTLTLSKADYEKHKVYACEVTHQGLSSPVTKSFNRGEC
heavy 1: QVQLQQSGPEVVKPGASVKMSCKASGYTFTSYVIHWVRQKPGQGLDWIGYINPYNDGTDYDEKFKGKATLTSDTSTSTAYMELSSLRSEDTAVYYCAREKDNYATGAWFAYWGQGTLVTVSSASTKGPSVFPLAPSSKSTSGGTAALGCLVKDYFPEPVTVSWNSGALTSGVHTFPAVLQSSGLYSLSSVVTVPSSSLGTQTYICNVNHKPSNTKVDKKVEPKSCDKTHTCPPCPAPEKKGGPSVFLFPPKPKDTLMISRTPEVTCVVVDVSHEDPEVKFNWYVDGVEVHNAKTKPREEQYNSTYRVVSVLTVLHQDWLNGKEYKCKVSNKALPAPIEKTISKAKGQPREPQVYVLPPSREEMTKNQVSLLCLVKGFYPSDIAVEWESNGQPENRYMTWPPVLDSDGSFFLYSKLTVDKSRWQQGNVFSCSVMHEALHNHYTQKSLSLSPGK
heavy 2: QVQLQQSGPEVVKPGASVKMSCKASGYTFTSYVIHWVRQKPGQGLDWIGYINPYNDGTDYDEKFKGKATLTSDTSTSTAYMELSSLRSEDTAVYYCAREKDNYATGAWFAYWGQGTLVTVSSASTKGPSVFPLAPSSKSTSGGTAALGCLVKDYFPEPVTVSWNSGALTSGVHTFPAVLQSSGLYSLSSVVTVPSSSLGTQTYICNVNHKPSNTKVDKKVEPKSCDKPGSGIWELKKDVYVVELDWYPDAPGEMVVLTCDTPEEDGITWTLDQSSEVLGSGKTLTIQVKEFGDAGQYTCHKGGEVLSHSLLLLHKKEDGIWSTDILKDQKEPKNKTFLRCEAKNYSGRFTCWWLTTISTDLTFSVKSSRGSSDPQGVTCGAATLSAERVRGDNKEYEYSVECQEDSACPAAEESLPIEVMVDAVHKLKYENYTSSFFIRDIIKPDPPKNLQLKPLKNSRQVEVSWEYPDTWSTPHSYFSLTFCVQVQGKSKREKKDRVFTDKTSATVICRKNASISVRAQDRYYSSSWSEWASVPCSGGGGSGGGGSGGGGSGGGGSGRNLPVATPDPGMFPCLHHSQNLLRAVSNMLQKARQTLEFYPCTSEEIDHEDITKDKTSTVEACLPLELTKNESCLNSRETSFITNGSCLASRKTSFMMALCLSSIYEDLKMYQVEFKTMNAKLLMDPKRQIFLDQNMLAVIDELMQALNFNSETVPQKSSLEEPDFYKTKIKLCILLHAFRIRAVTIDRVMSYLNASDKTHTCPPCPAPEDEGGPSVFLFPPKPKDTLMISRTPEVTCVVVDVSHEDPEVKFNWYVDGVEVHNAKTKPREEQYNSTYRVVSVLTVLHQDWLNGKEYKCKVSNKALPAPIEKTISKAKGQPREPQVYVYPPSREEMTKNQVSLTCLVKGFYPSDIAVEWESNGQPENNYKTTPPVLDEDGSFALVSKLTVDKSRWQQGNVFSCSVMHEALHNHYTQKSLSLSPGK
notes: copies: 2 + 1 + 1
B2: Fab-IL-23(WT)-Fc-CD4 Ab (other)
light: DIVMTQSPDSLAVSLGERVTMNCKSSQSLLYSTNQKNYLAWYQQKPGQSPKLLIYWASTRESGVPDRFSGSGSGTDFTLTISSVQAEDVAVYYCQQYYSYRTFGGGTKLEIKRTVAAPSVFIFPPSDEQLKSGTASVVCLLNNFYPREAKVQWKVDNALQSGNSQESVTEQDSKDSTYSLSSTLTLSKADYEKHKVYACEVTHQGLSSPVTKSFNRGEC
heavy 1: B1 heavy 1
heavy 2: QVQLQQSGPEVVKPGASVKMSCKASGYTFTSYVIHWVRQKPGQGLDWIGYINPYNDGTDYDEKFKGKATLTSDTSTSTAYMELSSLRSEDTAVYYCAREKDNYATGAWFAYWGQGTLVTVSSASTKGPSVFPLAPSSKSTSGGTAALGCLVKDYFPEPVTVSWNSGALTSGVHTFPAVLQSSGLYSLSSVVTVPSSSLGTQTYICNVNHKPSNTKVDKKVEPKSCDKPGSGIWELKKDVYVVELDWYPDAPGEMVVLTCDTPEEDGITWTLDQSSEVLGSGKTLTIQVKEFGDAGQYTCHKGGEVLSHSLLLLHKKEDGIWSTDILKDQKEPKNKTFLRCEAKNYSGRFTCWWLTTISTDLTFSVKSSRGSSDPQGVTCGAATLSAERVRGDNKEYEYSVECQEDSACPAAEESLPIEVMVDAVHKLKYENYTSSFFIRDIIKPDPPKNLQLKPLKNSRQVEVSWEYPDTWSTPHSYFSLTFCVQVQGKSKREKKDRVFTDKTSATVICRKNASISVRAQDRYYSSSWSEWASVPCSGGGGSGGGGSGGGGSGGGGSGRAVPGGSSPAWTQCQQLSQKLCTLAWSAHPLVGHMDLREEGDEETTNDVPHIQCGDGCDPQGLRDNSQFCLQRIHQGLIFYEKLLGSDIFTGEPSLLPDSPVGQLHASLLGLSQLLQPEGHHWETQQIPSLSPSQPWQRLLLRFKILRSLQAFVAVAARVFAHGAATLSPDKTHTCPPCPAPEDEGGPSVFLFPPKPKDTLMISRTPEVTCVVVDVSHEDPEVKFNWYVDGVEVHNAKTKPREEQYNSTYRVVSVLTVLHQDWLNGKEYKCKVSNKALPAPIEKTISKAKGQPREPQVYVYPPSREEMTKNQVSLTCLVKGFYPSDIAVEWESNGQPENNYKTTPPVLDEDGSFALVSKLTVDKSRWQQGNVFSCSVMHEALHNHYTQKSLSLSPGK
notes: copies: 2 + 1 + 1
B3: Fab-IL-23(F60A)-Fc-CD4 Ab (other)
light: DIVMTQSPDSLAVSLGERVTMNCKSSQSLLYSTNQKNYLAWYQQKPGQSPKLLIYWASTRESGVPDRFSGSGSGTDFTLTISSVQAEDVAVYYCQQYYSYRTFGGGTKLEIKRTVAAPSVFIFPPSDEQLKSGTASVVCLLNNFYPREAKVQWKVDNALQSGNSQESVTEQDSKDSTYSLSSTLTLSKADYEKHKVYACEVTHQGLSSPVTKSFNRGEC
heavy 1: B1 heavy 1
heavy 2: B2 heavy 2 with F291A
notes: copies: 2 + 1 + 1
B4: Fab-IL-12(F60A)-Fc-CD4 Ab (other)
light: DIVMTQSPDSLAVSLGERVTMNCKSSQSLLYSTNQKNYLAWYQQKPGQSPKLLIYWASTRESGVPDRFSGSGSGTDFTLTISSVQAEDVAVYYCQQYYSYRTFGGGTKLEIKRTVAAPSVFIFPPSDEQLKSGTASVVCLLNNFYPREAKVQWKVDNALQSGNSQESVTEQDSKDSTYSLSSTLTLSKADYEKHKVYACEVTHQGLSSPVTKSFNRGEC
heavy 1: B1 heavy 1
heavy 2: B1 heavy 2 with F291A
notes: copies: 2 + 1 + 1
B5: Fab-IL-23(E59A/F60A)-Fc-CD4 Ab (other)
light: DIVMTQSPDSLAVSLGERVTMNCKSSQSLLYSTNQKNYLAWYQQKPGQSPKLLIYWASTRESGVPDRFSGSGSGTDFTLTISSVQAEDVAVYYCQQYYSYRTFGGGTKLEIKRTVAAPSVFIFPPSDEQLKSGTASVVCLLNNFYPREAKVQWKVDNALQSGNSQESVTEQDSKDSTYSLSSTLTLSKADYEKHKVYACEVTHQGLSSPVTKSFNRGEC
heavy 1: B1 heavy 1
heavy 2: B2 heavy 2 with E290A, F291A
B6: Fab-IL-12(E59A)-Fc-CD4 Ab (other)
light: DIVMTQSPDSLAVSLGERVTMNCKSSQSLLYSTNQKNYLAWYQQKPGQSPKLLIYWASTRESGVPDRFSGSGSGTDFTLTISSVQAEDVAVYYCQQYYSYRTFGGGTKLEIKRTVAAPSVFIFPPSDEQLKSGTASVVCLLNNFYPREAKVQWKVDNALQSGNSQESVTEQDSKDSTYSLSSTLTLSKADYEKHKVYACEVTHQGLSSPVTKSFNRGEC
heavy 1: B1 heavy 1
heavy 2: B1 heavy 2 with E290A
notes: copies: 2 + 1 + 1
B7: Fab-IL-12(E59A/F60A)-Fc-CD4 Ab (other)
light: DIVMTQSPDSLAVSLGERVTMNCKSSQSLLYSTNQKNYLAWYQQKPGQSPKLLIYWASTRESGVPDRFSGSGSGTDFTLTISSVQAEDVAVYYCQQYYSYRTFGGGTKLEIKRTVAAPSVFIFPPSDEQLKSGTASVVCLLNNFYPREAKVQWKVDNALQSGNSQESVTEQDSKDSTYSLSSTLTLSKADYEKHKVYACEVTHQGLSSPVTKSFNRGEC
heavy 1: B1 heavy 1
heavy 2: B1 heavy 2 with E290A, F291A
B8: Fab-IL-23(E59A)-Fc-CD4 Ab (other)
light: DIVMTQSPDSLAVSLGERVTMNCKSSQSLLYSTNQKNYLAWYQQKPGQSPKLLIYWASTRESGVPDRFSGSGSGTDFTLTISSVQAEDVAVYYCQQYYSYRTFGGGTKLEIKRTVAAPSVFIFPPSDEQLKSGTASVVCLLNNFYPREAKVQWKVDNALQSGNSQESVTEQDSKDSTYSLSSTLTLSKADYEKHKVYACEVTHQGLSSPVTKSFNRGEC
heavy 1: B1 heavy 1
heavy 2: B2 heavy 2 with E290A
notes: copies: 2 + 1 + 1
B9: IL-2 mutant-Fc-CD3 Ab (other, not shown: a dimerising Fc or GST)
light: EIVMTQSPGTLSLSPGESATLSCSASLSVSFMHWFQQKPGHAPRLLIYRTSNLASGVPDRFSGSGSGTDFTLTISRLEPEDFAVYYCQQRSSDPPTFGQGTRLEIKRTVAAPSVFIFPPSDEQLKSGTASVVCLLNNFYPREAKVQWKVDNALQSGNSQESVTEQDSKDSTYSLSSTLTLSKADYEKHKVYACEVTHQGLSSPVTKSFNRGEC
heavy: EVQLVESGGGLVQPGRSLRLSCTASGFTFSYFWMNWVRQAPGKGLEWVGEIRLRSDNYATHYAESVKGRFTISRDDSKSIAYLQMNSLKTEDTALYYCTRDWEFTYWGQGTTVTVSSAS
chain: APTSSSTKKTQLQLEHLLLDLQMILNGINNYKNPKLTDMLTFEFYMPKKATELKHLQCLERELKPLEEVLNLAQSKNFHLRPRDLISNINVIVLELKGSETTFMCEYADETATIVEFLNRWITFCQSIISTLT
B10: anti-CD3 antibody (made in-house) (antibody, V domains shown)
VH: EVQLVESGGGLVQPGRSLRLSCTASGFTFSYFWMNWVRQAPGKGLEWVGEIRLRSDNYATHYAESVKGRFTISRDDSKSIAYLQMNSLKTEDTALYYCTRDWEFTYWGQGTTVTVSS
VL: EIVMTQSPGTLSLSPGESATLSCSASLSVSFMHWFQQKPGHAPRLLIYRTSNLASGVPDRFSGSGSGTDFTLTISRLEPEDFAVYYCQQRSSDPPTFGQGTRLEIKR

How the values were obtained:
[1] = biological target: human IL-12 receptor complex (IL-12Rβ1, IL-12Rβ2) (human, UniProt P42701 24-662; Q99665 24-862); test: cell-based or functional assay
CD8 on CD8+ T cells = biological target: T1, CD8 on CD8+ T cells (UniProt P01732 22-235); test: FACS
T1 construct: whole, on cells

[2] = biological target: IL-23 receptor complex (IL-12Rβ1, IL-23R) (UniProt P42701 24-662; Q5VWK5 24-629, limits assumed); test: cell-based or functional assay
[3] = biological target: T2, human IL-2 receptor (IL-2Rα, IL-2Rβ, IL-2Rγ) (human, UniProt P01589 22-272; P14784 27-551; P31785 23-369); test: cell-based or functional assay
T2 sequence (looked up) 1: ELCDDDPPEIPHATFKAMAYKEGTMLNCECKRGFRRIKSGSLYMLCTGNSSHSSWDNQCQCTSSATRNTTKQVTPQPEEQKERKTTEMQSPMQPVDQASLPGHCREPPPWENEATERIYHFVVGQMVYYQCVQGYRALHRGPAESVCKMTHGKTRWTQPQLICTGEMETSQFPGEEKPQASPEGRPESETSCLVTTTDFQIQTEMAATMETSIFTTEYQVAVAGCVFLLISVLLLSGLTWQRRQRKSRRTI
T2 sequence (looked up) 2: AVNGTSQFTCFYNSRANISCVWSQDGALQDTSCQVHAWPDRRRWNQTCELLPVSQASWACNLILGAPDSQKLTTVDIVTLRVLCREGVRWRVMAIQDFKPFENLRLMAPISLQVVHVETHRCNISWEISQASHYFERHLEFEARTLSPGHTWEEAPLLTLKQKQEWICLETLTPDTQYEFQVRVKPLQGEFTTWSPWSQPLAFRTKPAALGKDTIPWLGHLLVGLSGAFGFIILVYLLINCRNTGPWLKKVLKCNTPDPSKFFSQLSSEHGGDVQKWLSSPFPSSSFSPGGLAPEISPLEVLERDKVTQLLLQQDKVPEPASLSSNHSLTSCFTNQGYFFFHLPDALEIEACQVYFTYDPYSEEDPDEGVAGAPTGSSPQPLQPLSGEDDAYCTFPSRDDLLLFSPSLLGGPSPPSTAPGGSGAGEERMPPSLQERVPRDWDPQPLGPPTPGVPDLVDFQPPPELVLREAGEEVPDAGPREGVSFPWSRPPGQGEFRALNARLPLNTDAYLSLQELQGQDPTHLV
T2 sequence (looked up) 3: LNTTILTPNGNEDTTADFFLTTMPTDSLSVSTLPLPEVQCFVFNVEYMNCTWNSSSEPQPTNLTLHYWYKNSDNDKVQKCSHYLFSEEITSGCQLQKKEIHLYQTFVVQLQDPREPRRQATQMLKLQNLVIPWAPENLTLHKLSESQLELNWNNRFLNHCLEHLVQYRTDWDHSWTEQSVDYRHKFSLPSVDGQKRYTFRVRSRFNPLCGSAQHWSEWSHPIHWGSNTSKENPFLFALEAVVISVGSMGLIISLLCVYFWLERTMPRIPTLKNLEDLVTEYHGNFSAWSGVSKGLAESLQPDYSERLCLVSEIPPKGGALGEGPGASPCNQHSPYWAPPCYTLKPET

Chain of human IL-12 receptor complex (IL-12Rβ1, IL-12Rβ2) (Q99665 24-862, chain 2 of 2, other chains not shown): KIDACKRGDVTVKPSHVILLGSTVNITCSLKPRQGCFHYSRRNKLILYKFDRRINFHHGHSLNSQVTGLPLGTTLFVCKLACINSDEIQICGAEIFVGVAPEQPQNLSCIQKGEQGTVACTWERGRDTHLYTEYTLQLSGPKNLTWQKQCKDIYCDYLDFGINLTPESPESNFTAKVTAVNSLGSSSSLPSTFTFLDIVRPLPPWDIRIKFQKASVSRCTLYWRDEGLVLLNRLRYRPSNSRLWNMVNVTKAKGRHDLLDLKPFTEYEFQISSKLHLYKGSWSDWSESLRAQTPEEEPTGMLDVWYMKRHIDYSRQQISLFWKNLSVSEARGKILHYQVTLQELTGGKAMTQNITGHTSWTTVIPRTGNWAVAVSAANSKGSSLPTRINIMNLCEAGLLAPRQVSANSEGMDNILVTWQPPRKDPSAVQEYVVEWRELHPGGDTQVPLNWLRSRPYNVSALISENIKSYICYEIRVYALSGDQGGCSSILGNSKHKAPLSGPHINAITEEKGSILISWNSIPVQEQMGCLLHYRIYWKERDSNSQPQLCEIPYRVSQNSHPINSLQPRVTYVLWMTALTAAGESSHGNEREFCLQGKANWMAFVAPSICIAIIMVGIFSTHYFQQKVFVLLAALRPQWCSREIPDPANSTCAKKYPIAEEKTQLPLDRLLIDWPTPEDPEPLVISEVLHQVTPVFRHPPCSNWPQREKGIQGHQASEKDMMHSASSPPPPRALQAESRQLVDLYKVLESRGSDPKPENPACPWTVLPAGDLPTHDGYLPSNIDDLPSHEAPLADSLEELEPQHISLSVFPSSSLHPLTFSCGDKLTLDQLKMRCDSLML
T1 sequence (P01732 22-235): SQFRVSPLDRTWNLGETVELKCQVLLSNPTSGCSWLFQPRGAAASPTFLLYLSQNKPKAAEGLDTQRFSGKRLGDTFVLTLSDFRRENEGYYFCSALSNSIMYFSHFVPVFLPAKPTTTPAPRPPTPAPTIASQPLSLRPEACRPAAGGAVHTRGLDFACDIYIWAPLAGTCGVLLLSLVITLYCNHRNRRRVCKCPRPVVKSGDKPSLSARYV
Chain of IL-23 receptor complex (IL-12Rβ1, IL-23R) (Q5VWK5 24-629 limits assumed, chain 2 of 2, other chains not shown): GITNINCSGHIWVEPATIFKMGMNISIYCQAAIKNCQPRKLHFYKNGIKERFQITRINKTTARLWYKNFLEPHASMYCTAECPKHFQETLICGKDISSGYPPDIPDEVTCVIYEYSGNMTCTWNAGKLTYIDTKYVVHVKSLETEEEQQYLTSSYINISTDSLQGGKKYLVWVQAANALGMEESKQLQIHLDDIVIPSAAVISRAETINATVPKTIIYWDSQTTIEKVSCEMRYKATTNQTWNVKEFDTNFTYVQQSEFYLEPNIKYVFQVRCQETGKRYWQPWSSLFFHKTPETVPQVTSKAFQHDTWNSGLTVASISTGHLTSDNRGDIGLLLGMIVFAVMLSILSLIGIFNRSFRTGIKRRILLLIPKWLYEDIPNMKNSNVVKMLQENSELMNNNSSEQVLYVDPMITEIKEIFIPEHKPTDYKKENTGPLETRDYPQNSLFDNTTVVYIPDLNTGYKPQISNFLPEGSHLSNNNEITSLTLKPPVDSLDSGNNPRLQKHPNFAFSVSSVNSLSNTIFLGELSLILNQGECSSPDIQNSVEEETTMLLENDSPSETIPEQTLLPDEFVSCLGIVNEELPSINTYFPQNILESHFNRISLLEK

| Binder | IL-12 biological activity (IFN-γ release), CD4+ T cells [1] | IL-12 biological activity (IFN-γ release), CD8+ T cells [1] | binding result (CD8 on CD8+ T cells) | IL-23 biological activity (IFN-γ release), CD4+ T cells [2] | IL-23 biological activity (IFN-γ release), CD8+ T cells [2] | Percent IL-2 signal transduction (HEK-IL-2 reporter assay) [3] | Percent T-cell proliferation (PBMC proliferation assay) [3] |
| --- | --- | --- | --- | --- | --- | --- | --- |
| B1 | 43% | 25% | no binding | – | – | – | – |
| B2 | – | – | no binding | 34% | 21% | – | – |
| B3 | – | – | no binding | 29% | 1.5% | – | – |
| B4 | 32.2% | 1.5% | no binding | – | – | – | – |
| B5 | – | – | no binding | 6.8% | 0% | – | – |
| B6 | 29.8% | 1.1% | no binding | – | – | – | – |
| B7 | 8.2% | 0% | no binding | – | – | – | – |
| B8 | – | – | no binding | 24% | 2% | – | – |
| B9 | – | – | – | – | – | 11% | 39% |
| B10 | – | – | – | – | – | 0% | 0% |
